Measurements: patent US20110200525A1 (published 2011)
Several values for one entry are separate records, joined by “and”; a condition that tells them apart may be missing. Equal values may be shown once.

What was measured:
human EGFR wild type [1] = biological target: T1, human EGFR wild type (human, UniProt P00533 25-1210); test: saturation binding of 125I-labelled VHH122 on an EGFR-expressing cell, specific binding in CPM
T1 construct: whole, on cells; also called EGFR on NR6W cells; EGFR in NR6W lysate

EGFR ECD (wild type) [2] = biological target: T2, EGFR ECD (wild type) (UniProt P00533 25-645, limits assumed); test: SPR, Biacore 3000, ECD on CM5 chip; summary value
T2 construct: extracellular domain; the cell lines carry human EGFR; also called wild type EGFR ECD; EGFR extracellular domain
Method: (§1) The ka, kd, and KD values were determined for the binding of two VHH domains to the ECDs of EGFR and EGFRvIII by surface plasmon resonance (SPR). The ECDs were coupled to BIACORE® CM5 chips and VHH domains were sequentially flowed over each protein in the BIACORE® 3000 (GE Healthcare).

EGFRvIII ECD [3] = biological target: T3, EGFRvIII ECD (UniProt P00533 25-645); test: SPR, Biacore 3000, ECD on CM5 chip; summary value
T3 construct: extracellular domain; Deletion mutant; also called vIII mutant EGFR ECD
Method: as §1

EGFRvIII ECD [4] = biological target: T3, EGFRvIII ECD; test: SPR, Biacore 3000, EGFRvIII ECD on CM5 chip, VHH at 1.0 µM
Method: as §1

EGFR ECD (wild type) [5] = biological target: T2, EGFR ECD (wild type); test: SPR, Biacore 3000, EGFR ECD on CM5 chip, VHH at 1.0 µM
Method: as §1

EGFRvIII ECD [6] = biological target: T3, EGFRvIII ECD; test: SPR, Biacore 3000, EGFRvIII ECD on CM5 chip, VHH at 0.6 µM
Method: as §1

EGFR ECD (wild type) [7] = biological target: T2, EGFR ECD (wild type); test: SPR, Biacore 3000, EGFR ECD on CM5 chip, VHH at 0.6 µM
Method: as §1

human EGFRvIII = biological target: T4, human EGFRvIII (human, UniProt P00533 25-1210); test: phage format; assay not given
T4 construct: whole, on cells; Deletion mutant; also called EGFRvIII on NR6M cells; VIII mutant EGFR

human EGFR wild type [8] = biological target: T1, human EGFR wild type; test: phage format; assay not given
EGFR ECD (wild type) [9] = biological target: T2, EGFR ECD (wild type); test: SPR, Biacore 3000, ECD coupled to CM5 chip
Method: as §1

EGFRvIII ECD [10] = biological target: T3, EGFRvIII ECD; test: SPR, Biacore 3000, ECD coupled to CM5 chip
Method: as §1

human EGFR wild type [11] = biological target: T1, human EGFR wild type; test: pull-down from NR6W lysate by His-tagged VHH on a nickel-chelate plate, Western blot with anti-EGFR mAb H11
Method: The VHH domains were allowed to bind to the plate wells for 16 hr at 4° C., and then the wells were washed 3 times with Tris-buffered saline containing 0.1% (v/v) TWEEN®-20 (TBST). NR6W lysate (450 μg) made with M-PER reagent (Pierce) plus EDTA-free protease inhibitors (Roche Applied Science) was added to each well and allowed to incubate for 16 hr at 4° C. The lysate was removed, and the wells were washed 15 times with TBST. Protein remaining on the well surface was eluted in SDS-PAGE sample buffer containing 1% (v/v) β-mercaptoethanol and 100 mM imidazole, preheated to 95° C. […] The blot was developed with SuperSignal West™ substrate (Pierce) and exposed to film.
NR6W lysate was added to each well and allowed to incubate for 16 hr at 4° C. The lysate was removed, the wells were washed and remaining protein eluted. Samples were subjected to SDS-PAGE and proteins were transferred to a PVDF membrane that was then probed for EGFR.

B1: [125I]VHH122 (VHH)
VHH: EVQLQESGGGLVQAGDSLRLSCLVSGRSFNSYTMGWFRQAPGKEREFVAAILWSGPTTYYADSVKGRFTISRDNAKNTVYLQMNSLKPEDTAVYYCAAALGVLVLAPGNVYSYWGQGTQVTVSS
modifications: 125I label; labelled residues not stated
notes: not shown: C-terminal 6-His and myc tags from pHEN1-H6
Kd (human EGFR wild type [1]): 46 nM

B2: VHH122 (VHH)
VHH: EVQLQESGGGLVQAGDSLRLSCLVSGRSFNSYTMGWFRQAPGKEREFVAAILWSGPTTYYADSVKGRFTISRDNAKNTVYLQMNSLKPEDTAVYYCAAALGVLVLAPGNVYSYWGQGTQVTVSS
notes: polyhistidine and myc tagged; also called VH122; not shown: C-terminal 6-His and myc tags from pHEN1-H6
Kd (EGFR ECD (wild type) [2]): ~40 nM | Kd (EGFRvIII ECD [3]): ~40 nM | Ka (EGFRvIII ECD [4]): 1.82e+07 M⁻¹ | Kd (EGFRvIII ECD [4]): 55 nM | koff (EGFRvIII ECD [4]): 0.00308 s⁻¹ | kon (EGFRvIII ECD [4]): 56100 M⁻¹ s⁻¹ | Ka (EGFR ECD (wild type) [5]): 4.95e+07 M⁻¹ and 1.73e+07 M⁻¹ | Kd (EGFR ECD (wild type) [5]): 20.2 nM and 57.8 nM | koff (EGFR ECD (wild type) [5]): 0.00207 s⁻¹ and 0.00333 s⁻¹ | kon (EGFR ECD (wild type) [5]): 57600 M⁻¹ s⁻¹ and 102000 M⁻¹ s⁻¹ | Ka (EGFRvIII ECD [6]): 3.01e+07 M⁻¹ | Kd (EGFRvIII ECD [6]): 33.2 nM | koff (EGFRvIII ECD [6]): 0.00304 s⁻¹ | kon (EGFRvIII ECD [6]): 91300 M⁻¹ s⁻¹ | Ka (EGFR ECD (wild type) [7]): 2.58e+07 M⁻¹ | Kd (EGFR ECD (wild type) [7]): 38.7 nM | koff (EGFR ECD (wild type) [7]): 0.00318 s⁻¹ | kon (EGFR ECD (wild type) [7]): 82300 M⁻¹ s⁻¹

B3: VHH205 (VHH)
VHH: QVKLQESGGGLVQSGGSLRLSCIASGSTVSGNTMGWYRQAPGKQRELVAVISSVGVSNVAQSVKGRFAISRDNAKNTVYLQMSSLKPEDTAVYYCNALGTGRANWGQGTQVTVSS
notes: Free VHH used in SPR; not shown: C-terminal 6-His and myc tags from pHEN1-H6
Ka (EGFR ECD (wild type) [5]): 1.34e+07 M⁻¹ | Kd (EGFR ECD (wild type) [5]): 74.7 nM | koff (EGFR ECD (wild type) [5]): 0.0115 s⁻¹ | kon (EGFR ECD (wild type) [5]): 154000 M⁻¹ s⁻¹

B4: VHH03 (VHH)
VHH: EVKLQQSGGGLVQPGGSLTLSCVTSGFTFSTYGMDWVRQAPGKGFEWVASISFGGGITNYGDFVKGRFTISRDNAKNTLYLHMNGLKPDDTAVYYCQMGSKRGQGTQVTVSS
binding result (human EGFRvIII): no binding | binding result (human EGFR wild type [8]): binds

B5: RP2 (VHH)
VHH: EVQLQESGGGLVQAGGSLRLSCAASGSTFSNEPFGWYRGAPGKLRELVGTISAGGNTNYVDAVKGRFMISRDNGRRMVYLQMNNLRPDDTAVYYCWNRGYWGQGTQVTVSS
notes: Random library clone used as negative control, as free VHH; also called random VHH domain RP2; control VHH RP2; not shown: C-terminal 6-His and myc tags from pHEN1-H6
binding result (EGFR ECD (wild type) [9]): no binding | binding result (EGFRvIII ECD [10]): no binding | binding result (human EGFR wild type [11]): no binding (tested: 20 ug VHH per well)
